Experimental findings from paper PMC10928148 (Molecular Therapy, 2024) are described below.

As usually defined, the Kd is the free concentration of one partner at which half of the binding sites on the other are occupied at equilibrium, for simple one-to-one binding. The koff is the rate constant with which the complex falls apart. High values mean fast dissociation, low ones slow dissociation. By kon is commonly meant the rate constant with which the complex forms. Read a high kon as fast association.

The target in experiment [1] is T1, receptor binding domain of the SARS-CoV-2 (Wuhan) Spike protein with C-terminal 6xHis-tag (Severe acute respiratory syndrome …, UniProt P0DTC2). Put plainly: SPR. To be noted: both partners purified.
Experiment [2] deals with T2, receptor binding domain of the SARS-CoV-2 (Wuhan) Spike protein with C-terminal 6xHis-tag (SARS-CoV-2 (Wuhan), UniProt P0DTC2). Put plainly: cell-based or functional assay.
The target in experiment [3] is T2, receptor binding domain of the …. Put plainly: SPR. To be noted: both partners purified.
Experiment [4] has as its target T1, receptor binding domain of the …. The experiment in a line: SPR. The settings on record: both partners purified. The source holds these as a separate data set.

B1: COVA2-15 monomeric IgA1 (antibody, V domains shown)
VH: QVQLLESGGGLVQPGGSLRLSCAASGFTFSSYAMSWVRQAPGKGLEWASAISGSGGSTYYADSVEGRFTISRDNSKNTLYLQMNSLRAEDTAVYYCAKDTGYCGDDCYIKLIRGGPDYWGQGTLVTVSS
VL: DIVMTQSPLSLPVTLGQPASISCRSSQSLVYSDGNTFLNWFQQRPGQSPRRLIYQVSNRDSGVPDRFSGSGSGTDFTLKISRVEAEDVGVYYCMQGTHWPRTFGQGTKLEIK
In the case of B1, in experiment [1], the Kd came out at 1.43 nM, the koff stood at 0.00027 s⁻¹ and the kon was found to be 231000 M⁻¹ s⁻¹.

B2: COVA2-15 IgG (antibody, V domains shown)
VH: B1 VH
VL: B1 VL
For B2, the other in experiment [2] amounted to 50 ng/mL. In experiment [3], this molecule registered a Kd of 0.74 nM, an off-rate (koff) of 0.00024 s⁻¹ and a kon of 333000 M⁻¹ s⁻¹.

B3: COVA2-15 secretory IgA1 (antibody, V domains shown)
VH: B1 VH
VL: B1 VL
In experiment [2], B3 gave an other of 13.5 ng/mL. Moreover, in experiment [3], the Kd amounted to 0.38 nM, the dissociation rate constant (koff) was determined as 0.00016 s⁻¹ and the kon was 423000 M⁻¹ s⁻¹.

B4: COVA2-15 monomeric IgA2 (antibody, V domains shown)
VH: B1 VH
VL: B1 VL
Regarding B4, the other in experiment [2] was 50 ng/mL.

B5: COVA2-15 monomeric IgA1 (antibody, V domains shown)
VH: B1 VH
VL: B1 VL
Consider B5, for which, in experiment [2], the other came out at 50 ng/mL.

B6: COVA2-15 secretory IgA2 (antibody, V domains shown)
VH: B1 VH
VL: B1 VL
Consider B6, for which the other in experiment [2] came to 13.5 ng/mL. In addition, in experiment [3], the Kd stood at 0.76 nM, the koff was determined as 0.00024 s⁻¹ and the kon turned out to be 326000 M⁻¹ s⁻¹.

B7: COVA2-15 monomeric IgA2 (antibody, V domains shown)
VH: B1 VH
VL: B1 VL
In experiment [1], B7 showed a Kd of 1.67 nM, a koff of 0.00035 s⁻¹ and a kon of 207000 M⁻¹ s⁻¹.

B8: 2-15 monomeric IgA1 (antibody, V domains shown)
VH: QVQLVQSGAEVKKPGASVRVSCKASGYTFTGYYMHWVRQAPGQGLEWMGWINPISDGTNYAQKFQGWVTMTRDTSISTVYMELSRLRSDDTAVYYCARGGSRCSGGNCYGWAYDAFDIWGQGTMITVSS
VL: QSALTQPASVSGSPGQSITISCTGTSSDVGGYNFVSWYQQHPGKAPKLMIYDVSKRPSGVSNRFSGSKSGNTASLTISGLQAEDEADCYCSSYTSSSTFVFGTGTKVTVL
B8 had a Kd in experiment [4] of 3.75 nM.

B9: 2-15 monomeric IgA2 (antibody, V domains shown)
VH: B8 VH
VL: B8 VL
On to B9, for which, in experiment [4], the Kd was 2.88 nM.

B10: 2-15 IgG (antibody, V domains shown)
VH: B8 VH
VL: B8 VL
With B10, in experiment [4], the affinity, expressed as Kd, was 1.16 nM.
